This is an account of results in paper PMC9525906 (The Journal of Biological Chemistry, 2022).

The term Km denotes the concentration of substrate that gives half-maximal velocity. A word on the Vmax: it is the rate approached at saturating substrate. As usually defined, the kcat is the maximal rate divided by the concentration of active sites. One may read the stoichiometry N as the number of molecules, sites or subunits per partner or assembly.

Substrate in the data set “purified protein”: NC(=O)c1ncn([C@@H]2O[C@H](COP(=O)(O)O)[C@@H](O)[C@H]2O)c1NC=O
Kind of data set: purified protein. The format is biochemical, Cryptococcus neoformans. As to conditions: IMP cyclohydrolase activity, 100 mM Tris-Cl pH 7.5, 37 °C.

The data set “SEC-MALS” deals with the molecule itself. Kind of data set: SEC-MALS.

B1: Cryptococcus neoformans AICAR transformylase/IMP cyclohydrolase (ATIC) (enzyme, UniProt J9VJP1 1-605, looked up)
chain: MSSEAPIALLSVYDKTGLLPFAKSLKELGFRLLGSGGTAKMIREAGMEIEDVSNITKAPEMLGGRVKTLHPAVHGGILSRDIPSDLADLATNKISPITLVVCNLYPFVLQTAKPDCTLAGAIEEIDIGGVTLLRAAAKNHGRVSIISSPSDYETIVAELRAKGEVSAETRRGLAIKAFEDTKSYDEAISDYFRKVYATPGVEEEMKAGAGVGYQRLGLRYGANPHQKPAQAFVEQGEMPIKVLSGSPGYINLLDALNSWALVKELAAGLDLPAAASFKHVSPAGAAVGLPLDERAAKVFGVEDLKELSPLACAYARARGADRMSSFGDFIALSHTVDTPTAKIISREVSDGVIAPGYEPEALEILSKKKGGKYCVLQMDPTYVPPEIETRQVYGISLQQKRNDCKIDESLFKNVVTANKDLPKSAVTDLVVATLALKYTQSNSVCYALNGTVIGLGAGQQSRIHCTRLAGDKADNWWLRHHPRVLELPFKKGTKRADKANAIDLFVTGQAFEAEGGERAQWESLFETVPEPLTKEEREKHMKELTGVACASDAFFPFPDNVHRAKRSGATYLAAPSGSIMDKECIKAADESNLVFCHTDLRLFHH
On to B1, for which, in the data set “purified protein”, the Michaelis-Menten constant (Km) came out at 30 ± 1 µM, the Vmax is 8.6 µmol/min/mg and the catalytic constant (kcat) worked out at 7.7 ± 0.1 s⁻¹. Also, in “SEC-MALS”, the “stoichiometry N” value came out at 2.
